Columns and labels:
DU145 cells = assay: flow cytometry on DU145 cells, rhIgGFc at 100 nM, detected with anti-IgGFc-specific PE secondary antibody (control)
PLEXIN B1 [1] = target: T1, PLEXIN B1 (human, UniProt O43157 20-2135); assay: alkaline phosphatase ligand binding assay on DU145 cells B1 siRNA1 against scramble siRNA; APTag background subtracted
T1 construct: whole, on cells; Endogenous receptor on cells
Experimental: (§1) Cells were washed and then lysed. Plexin B1 levels were analyzed from lysates (30 μg) by polyacrylamide gel electrophoresis (PAGE). Western Blots were probed with anti-Plexin B1 and anti-phospho-Shc. Blots were re-probed with anti-vinculin and anti-Shc as loading control. DU145 cells were transfected with scramble siRNA, Plexin B1siRNA1 or PlexinB1 siRNA2 (10 nM) using RNAiMax™ reagent as directed by the manufacturer, (Invitrogen™, Missisauga, Ontario). Following 72 hours incubation the cells were replated at 20,000 cells/well in a 96-well flat bottom plate and let adhere for 4 hours. The remaining cells were lysed and assayed for PlexinB1 expression by Western Blot. The blot was reprobed with vinculin as loading control. Medium was replaced with DMEM without serum for 16 hours prior to the binding assay. […]
(§2) The binding assay was performed as previously described by […], J G. and LEDER, P. (1990), endogenous phosphatase heat inactivation was done in HBHA at 65° C. following the fixation step. Plate readings at 562 nm were taken initially and then every 24 hours. […]
(§3) DU145 cells transfected with scramble siRNA or, two distinct siRNAs targeting Plexin B1. […] AP-Sema3C binding to DU145 cells that were transfected with scramble or Plexin B1 siRNAs, where the mean and SEM AP-Sema3C binding performed was calculated in quadruplicate.

PLEXIN B1 [2] = target: T1, PLEXIN B1; assay: alkaline phosphatase ligand binding assay on DU145 cells transfected with Plexin B1 siRNA B1 siRNA2 against scramble siRNA; APTag background subtracted
Experimental: as §1, §2, §3

T1 sequence (O43157 20-2135): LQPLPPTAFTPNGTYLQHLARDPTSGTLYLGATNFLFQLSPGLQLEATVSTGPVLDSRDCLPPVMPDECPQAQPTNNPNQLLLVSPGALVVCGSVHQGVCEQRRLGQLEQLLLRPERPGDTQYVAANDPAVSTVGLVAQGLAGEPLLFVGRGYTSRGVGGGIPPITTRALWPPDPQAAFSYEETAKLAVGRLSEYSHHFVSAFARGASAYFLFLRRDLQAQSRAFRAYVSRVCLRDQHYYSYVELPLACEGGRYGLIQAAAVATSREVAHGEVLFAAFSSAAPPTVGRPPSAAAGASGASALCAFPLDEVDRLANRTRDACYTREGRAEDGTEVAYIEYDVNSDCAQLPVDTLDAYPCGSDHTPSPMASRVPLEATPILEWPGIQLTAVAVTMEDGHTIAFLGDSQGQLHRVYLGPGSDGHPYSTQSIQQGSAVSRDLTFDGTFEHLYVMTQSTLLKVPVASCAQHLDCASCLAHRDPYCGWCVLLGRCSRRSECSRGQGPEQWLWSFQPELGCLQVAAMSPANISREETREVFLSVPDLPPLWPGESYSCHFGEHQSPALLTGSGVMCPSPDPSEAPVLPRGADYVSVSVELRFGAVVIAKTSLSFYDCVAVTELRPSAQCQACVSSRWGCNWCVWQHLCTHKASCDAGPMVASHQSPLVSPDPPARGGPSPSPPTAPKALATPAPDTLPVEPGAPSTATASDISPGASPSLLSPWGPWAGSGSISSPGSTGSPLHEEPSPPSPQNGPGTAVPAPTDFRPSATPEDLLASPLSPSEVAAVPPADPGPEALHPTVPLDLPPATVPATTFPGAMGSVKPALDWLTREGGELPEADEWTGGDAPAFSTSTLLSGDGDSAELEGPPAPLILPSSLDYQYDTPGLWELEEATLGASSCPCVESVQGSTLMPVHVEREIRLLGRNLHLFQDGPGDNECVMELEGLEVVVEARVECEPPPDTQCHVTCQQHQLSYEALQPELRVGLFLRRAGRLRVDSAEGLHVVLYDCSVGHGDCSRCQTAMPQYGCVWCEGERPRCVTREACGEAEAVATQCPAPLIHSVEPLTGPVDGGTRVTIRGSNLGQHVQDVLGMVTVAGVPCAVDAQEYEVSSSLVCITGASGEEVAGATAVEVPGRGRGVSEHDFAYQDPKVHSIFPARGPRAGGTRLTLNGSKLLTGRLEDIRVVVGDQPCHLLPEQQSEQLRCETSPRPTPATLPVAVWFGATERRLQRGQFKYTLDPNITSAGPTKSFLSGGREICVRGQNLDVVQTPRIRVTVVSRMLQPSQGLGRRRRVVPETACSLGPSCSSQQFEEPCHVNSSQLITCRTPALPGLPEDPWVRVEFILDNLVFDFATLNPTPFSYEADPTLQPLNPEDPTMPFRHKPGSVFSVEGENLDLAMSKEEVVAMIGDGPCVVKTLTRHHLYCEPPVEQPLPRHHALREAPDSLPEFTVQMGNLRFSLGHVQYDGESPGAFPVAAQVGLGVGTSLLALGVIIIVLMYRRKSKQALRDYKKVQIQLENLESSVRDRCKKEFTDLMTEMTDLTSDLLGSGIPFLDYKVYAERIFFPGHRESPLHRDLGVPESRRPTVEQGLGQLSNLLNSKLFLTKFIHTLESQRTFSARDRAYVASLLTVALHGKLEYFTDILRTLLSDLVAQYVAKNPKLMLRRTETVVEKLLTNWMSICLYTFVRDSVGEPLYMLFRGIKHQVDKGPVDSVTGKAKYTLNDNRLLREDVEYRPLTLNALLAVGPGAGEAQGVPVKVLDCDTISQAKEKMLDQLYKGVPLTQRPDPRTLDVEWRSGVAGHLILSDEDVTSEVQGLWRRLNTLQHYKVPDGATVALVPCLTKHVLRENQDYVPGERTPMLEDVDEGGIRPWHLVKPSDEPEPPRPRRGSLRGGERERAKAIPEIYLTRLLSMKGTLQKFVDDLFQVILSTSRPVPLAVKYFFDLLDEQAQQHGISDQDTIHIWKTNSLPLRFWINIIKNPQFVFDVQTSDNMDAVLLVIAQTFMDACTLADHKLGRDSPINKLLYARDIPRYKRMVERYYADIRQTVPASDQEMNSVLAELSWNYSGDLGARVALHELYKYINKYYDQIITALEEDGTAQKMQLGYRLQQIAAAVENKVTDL

| Molecule | level of staining at 100 nM (DU145 cells) [%] | fold reduction of binding on Plexin B1 knockdown against scramble siRNA (PLEXIN B1 [1]) [fold] | fold reduction of binding on Plexin B1 knockdown against scramble siRNA (PLEXIN B1 [2]) [fold] |
| --- | --- | --- | --- |
| Recombinant human IgGFc | 6.01 |  |  |
| AP-SEMA3C (ligand, UniProt Q99985 21-751, looked up, Used as conditioned medium from 293T cells; also called AP-SEMA 3C construct; not shown: alkaline phosphatase tag of the APTag vector) GSSQPQARVYLTFDELRETKTSEYFSLSHHPLDYRILLMDEDQDRIYVGSKDHILSLNINNISQEALSVFWPASTIKVEECKMAGKDPTHGCGNFVRVIQTFNRTHLYVCGSGAFSPVCTYLNRGRRSEDQVFMIDSKCESGKGRCSFNPNVNTVSVMINEELFSGMYIDFMGTDAAIFRSLTKRNAVRTDQHNSKWLSEPMFVDAHVIPDGTDPNDAKVYFFFKEKLTDNNRSTKQIHSMIARICPNDTGGLRSLVNKWTTFLKARLVCSVTDEDGPETHFDELEDVFLLETDNPRTTLVYGIFTTSSSVFKGSAVCVYHLSDIQTVFNGPFAHKEGPNHQLISYQGRIPYPRPGTCPGGAFTPNMRTTKEFPDDVVTFIRNHPLMYNSIYPIHKRPLIVRIGTDYKYTKIAVDRVNAADGRYHVLFLGTDRGTVQKVVVLPTNNSVSGELILEELEVFKNHAPITTMKISSKKQQLYVSSNEGVSQVSLHRCHIYGTACADCCLARDPYCAWDGHSCSRFYPTGKRRSRRQDVRHGNPLTQCRGFNLKAYRNAAEIVQYGVKNNTTFLECAPKSPQASIKWLLQKDKDRRKEVKLNERIIATSQGLLIRSVQGSDQGLYHCIATENSFKQTIAKINFKVLDSEMVAVVTDKWSPWTWASSVRALPFHPKDIMGAFSHSEMQMINQYCKDTRQQHQQGDESQKMRGDYGKLKALINSRKSRNRRNQLPES |  | 2.4 | 1.9 |
